Measured values as given in the supplement of paper PMC7877785.
± gives the uncertainty stated by the source.

Assay: self-splicing fitness, log relative to wild type (ln ratio); higher = more splicing; Tetrahymena group I intron in knt gene, E. coli kanamycin selection, DiMSum; sequences stand for … in CUCUCU…GGAGGGAAAAGUUAUCAGGCAUGCACCUGGUAGCUAGUCUUUAAACCAAUAGAUUGCAUCGGUUUAAAAGGCAAGACCGUCAAAUUGCGGGAAAGGGGUCAACAGCCGUUCAGUACCAAGUCUCAGGGGAAACUUUGAGAUGGCCUUGCAAAGGGUAUGGUAAUAAGCUGACGGACAUGGUCCUAACCACGCAGCCAAGUCCUAAGUCAACAGAUCUUCUGUUGAUAUGGAUGCAGUUCACAGACUAAAUGUCGGUCGGGGAAGAUGUAUUCUUCUCAUAAGAUAUAGUCGGACCUCUCCUUAAUGGGAGCUAGCGGAUGAAGUGAUGCAACACUGGAGCCGCUGGGAACUAAUUUGUAUGCGAAAGUAUAUUGAUUAGUUUUGGAGUACUCGUGGUCG
Procedure, shortened: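 DiMSum derived fitness as the error-weighted combination of fold changes across replicates, kanamycin versus no kanamycin, normalised to wild type. E. coli BL21(DE3) held the library, which randomised all eight P1ex-region intron nucleotides within the knt kanamycin-resistance gene on pET-22b(+). Six replicate transformations grew overnight at 37°C or 30°C on LB agar with or without 25 μg/mL kanamycin, also containing 100 μg/mL carbenicillin, 50 μM IPTG and 0.2% rhamnose, and pooled colonies were amplicon-sequenced on an Illumina HiSeq 2500.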

Sequence | self-splicing fitness (ln) (30 °C) | self-splicing fitness (ln) (37 °C)
GUGCAGCAAUAUUACGUCGU | -1.01 ± 0.12 | -0.193 ± 0.14
GUGCAGCAAUAUUACGUGAA | -0.187 ± 0.1 | -1.19 ± 0.14
GUGCAGCAAUAUUACGUGCG | -2.56 ± 0.1 | -2.06 ± 0.14
GUGCAGCAAUAUUACGUUGA | -1.49 ± 0.13 | -0.806 ± 0.14
GUGGAGCAAUAUUACGAAUA | -4.24 ± 0.47 | -2.33 ± 0.38
GUGGAGCAAUAUUACGACCA |  | -1.24 ± 0.35
GUGGAGCAAUAUUACGAUAC | -1.47 ± 0.26 | -0.631 ± 0.42
GUGGAGCAAUAUUACGAUUC | -0.681 ± 0.31 | 0.0106 ± 0.22
GUGGAGCAAUAUUACGCAAA | -2.28 ± 0.43 | -1.83 ± 0.25
GUGGAGCAAUAUUACGCCUA | -3 ± 0.29 | -1.96 ± 0.2
GUGGAGCAAUAUUACGCGGA |  | -1.85 ± 0.24
GUGGAGCAAUAUUACGCGGU | -1.16 ± 0.3 | -0.344 ± 0.29
GUGGAGCAAUAUUACGCGUU | -2.56 ± 0.16 | -1.94 ± 0.23
GUGGAGCAAUAUUACGCUGG | -3.52 ± 0.37 | -2.41 ± 0.33
GUGGAGCAAUAUUACGCUUU | -3.84 ± 0.32 | -2.41 ± 0.27
GUGGAGCAAUAUUACGGCCU | -1.74 ± 0.19 | -0.55 ± 0.3
GUGGAGCAAUAUUACGGGAU | -4.12 ± 0.23 | -1.99 ± 0.24
GUGGAGCAAUAUUACGGUUG | -3.04 ± 0.15 | 
GUGGAGCAAUAUUACGUAAU | -2.23 ± 0.13 | -0.812 ± 0.13
GUGGAGCAAUAUUACGUACA | -2.11 ± 0.33 | 
GUGGAGCAAUAUUACGUACU | -2.19 ± 0.37 | -2.2 ± 0.32
GUGGAGCAAUAUUACGUAUC | -2.13 ± 0.2 | -0.331 ± 0.17
GUGGAGCAAUAUUACGUAUG | -3.15 ± 0.24 | -2.3 ± 0.24
GUGGAGCAAUAUUACGUGAG | -2.1 ± 0.19 | -2.39 ± 0.21
GUGGAGCAAUAUUACGUGUC | -3.84 ± 0.22 | -2.64 ± 0.24

Sequence | self-splicing fitness (ln) (30 °C) | self-splicing fitness (ln) (37 °C)
GUGGAGCAAUAUUACGUUAA | -2.17 ± 0.19 | -2.41 ± 0.26
GUGUAGCAAUAUUACGAGCG |  | -0.927 ± 0.34
GUGUAGCAAUAUUACGAUAA | -2.6 ± 0.19 | -0.508 ± 0.12
GUGUAGCAAUAUUACGAUGA | -1.16 ± 0.087 | -0.756 ± 0.094
GUGUAGCAAUAUUACGAUUC | 0.325 ± 0.094 | -0.738 ± 0.088
GUGUAGCAAUAUUACGCAUU | -2.29 ± 0.3 | -1.97 ± 0.28
GUGUAGCAAUAUUACGCGUG | -3.82 ± 0.26 | -1.49 ± 0.15
GUGUAGCAAUAUUACGCUAG | -3.53 ± 0.31 | -1.88 ± 0.36
GUGUAGCAAUAUUACGCUUC | -2.71 ± 0.28 | -3.09 ± 0.47
GUGUAGCAAUAUUACGGAAA | -3 ± 0.28 | -1.42 ± 0.27
GUGUAGCAAUAUUACGGAAU | -1.42 ± 0.13 | -1.64 ± 0.25
GUGUAGCAAUAUUACGGCAG |  | -0.824 ± 0.23
GUGUAGCAAUAUUACGGGAC | -3.44 ± 0.32 | -2.03 ± 0.28
GUGUAGCAAUAUUACGUCCG | -3.16 ± 0.33 | -0.647 ± 0.22
GUGUAGCAAUAUUACGUCCU | -0.899 ± 0.15 | -0.148 ± 0.19
GUGUAGCAAUAUUACGUGGG | -4.25 ± 0.21 | -4.08 ± 0.26
GUGUAGCAAUAUUACGUGUA | -2.62 ± 0.14 | -1.22 ± 0.11
GUGUAGCAAUAUUACGUUGC | -1.92 ± 0.22 | -2.28 ± 0.46
GUUAAGCAAUAUUACGACAA | -0.704 ± 0.29 | -1.12 ± 0.26
GUUAAGCAAUAUUACGACAG | -2.85 ± 0.28 | -1.82 ± 0.33
GUUAAGCAAUAUUACGACCA | -0.467 ± 0.21 | -1.67 ± 0.17
GUUAAGCAAUAUUACGACUG | -2.57 ± 0.2 | -2.53 ± 0.4
GUUAAGCAAUAUUACGAUAU | -1.02 ± 0.067 | -0.0864 ± 0.074
GUUAAGCAAUAUUACGCAAC |  | -0.0162 ± 0.34
GUUAAGCAAUAUUACGCCGA | -1.83 ± 0.19 | -0.947 ± 0.18

Sequence | self-splicing fitness (ln) (30 °C) | self-splicing fitness (ln) (37 °C)
GUUAAGCAAUAUUACGCCGG |  | -0.148 ± 0.27
GUUAAGCAAUAUUACGCCGU | -1.42 ± 0.19 | -1.39 ± 0.23
GUUAAGCAAUAUUACGCCUC | -1.41 ± 0.25 | 0.196 ± 0.31
GUUAAGCAAUAUUACGCGAG | -0.369 ± 0.1 | -0.341 ± 0.14
GUUAAGCAAUAUUACGCGCA | -0.293 ± 0.12 | 0.115 ± 0.15
GUUAAGCAAUAUUACGCUCA | -0.759 ± 0.1 | 0.0333 ± 0.13
GUUAAGCAAUAUUACGCUGG | -0.613 ± 0.17 | -0.0646 ± 0.2
GUUAAGCAAUAUUACGCUUA | -3.09 ± 0.26 | -2.71 ± 0.25
GUUAAGCAAUAUUACGGAGG | -4 ± 0.23 | -1.56 ± 0.19
GUUAAGCAAUAUUACGGAGU | -3.71 ± 0.23 | -0.486 ± 0.13
GUUAAGCAAUAUUACGGCAC | -0.637 ± 0.12 | 0.0416 ± 0.15
GUUAAGCAAUAUUACGGUAG | -2.87 ± 0.17 | -1.69 ± 0.17
GUUAAGCAAUAUUACGGUCA | -0.91 ± 0.098 | -0.943 ± 0.092
GUUAAGCAAUAUUACGUAAA | -1.45 ± 0.12 | -1.43 ± 0.12
GUUAAGCAAUAUUACGUGCA | -1.44 ± 0.1 | -0.144 ± 0.11
GUUAAGCAAUAUUACGUGUU | -3.27 ± 0.14 | -1.11 ± 0.1
GUUAAGCAAUAUUACGUUGA | -3.87 ± 0.33 | -1.43 ± 0.25
GUUAAGCAAUAUUACGUUUC | -1.75 ± 0.21 | -1.29 ± 0.18
GUUCAGCAAUAUUACGAAUA | -1.01 ± 0.12 | -0.181 ± 0.1
GUUCAGCAAUAUUACGAGAC | -1.99 ± 0.4 | -0.261 ± 0.22
GUUCAGCAAUAUUACGAGAG | -0.895 ± 0.12 | -0.725 ± 0.12
GUUCAGCAAUAUUACGAUAA | -0.196 ± 0.084 | 0.169 ± 0.097
GUUCAGCAAUAUUACGCAAA | -0.717 ± 0.17 | -0.625 ± 0.18
GUUCAGCAAUAUUACGCACA | 1.48 ± 0.34 | -1.71 ± 0.49
GUUCAGCAAUAUUACGCCCG | -1.59 ± 0.22 | -0.196 ± 0.28

Sequence | self-splicing fitness (ln) (30 °C) | self-splicing fitness (ln) (37 °C)
GUUCAGCAAUAUUACGCCUG | -1.97 ± 0.2 | -0.936 ± 0.22
GUUCAGCAAUAUUACGCCUU | -0.418 ± 0.083 | 0.046 ± 0.082
GUUCAGCAAUAUUACGCGCU | -2.34 ± 0.18 | -1.13 ± 0.13
GUUCAGCAAUAUUACGCGGA | -4.19 ± 0.42 | -2.54 ± 0.23
GUUCAGCAAUAUUACGCGUC | -1.41 ± 0.071 | -0.257 ± 0.078
GUUCAGCAAUAUUACGGUAC | -2.69 ± 0.19 | 0.0172 ± 0.14
GUUCAGCAAUAUUACGGUUG | -1.9 ± 0.089 | -0.591 ± 0.1
GUUCAGCAAUAUUACGUACG | -1.32 ± 0.1 | -0.0258 ± 0.11
GUUCAGCAAUAUUACGUAGC | -0.047 ± 0.087 | -0.0432 ± 0.11
GUUCAGCAAUAUUACGUCAU | -0.56 ± 0.083 | -0.0298 ± 0.09
GUUCAGCAAUAUUACGUCGG | -3.7 ± 0.21 | -2.39 ± 0.23
GUUCAGCAAUAUUACGUGCG | -1.45 ± 0.068 | -0.215 ± 0.093
GUUCAGCAAUAUUACGUUAG | -1.3 ± 0.077 | -0.731 ± 0.11
GUUGAGCAAUAUUACGAAGA |  | -2.71 ± 0.48
GUUGAGCAAUAUUACGAGUA |  | -1.41 ± 0.39
GUUGAGCAAUAUUACGAUCC | -0.364 ± 0.16 | 0.0175 ± 0.28
GUUGAGCAAUAUUACGAUCG | -1.18 ± 0.39 | 
GUUGAGCAAUAUUACGCCCA | -1.93 ± 0.45 | -1.74 ± 0.38
GUUGAGCAAUAUUACGCCCG | -2.7 ± 0.49 | 
GUUGAGCAAUAUUACGCCUA | -1.73 ± 0.26 | -1.92 ± 0.3
GUUGAGCAAUAUUACGCCUC | -2.09 ± 0.39 | 
GUUGAGCAAUAUUACGCGGG | -3.17 ± 0.15 | -2.51 ± 0.26
GUUGAGCAAUAUUACGCGUA | -3.48 ± 0.47 | -0.589 ± 0.18
GUUGAGCAAUAUUACGCUAA | -2.15 ± 0.27 | -2.26 ± 0.26
